This series is described as follows: self-splicing fitness, log relative to wild type (ln ratio); higher = more splicing; Tetrahymena group I intron in knt gene, E. coli kanamycin selection, DiMSum; sequences stand for … in CUCUCU…GGAGGGAAAAGUUAUCAGGCAUGCACCUGGUAGCUAGUCUUUAAACCAAUAGAUUGCAUCGGUUUAAAAGGCAAGACCGUCAAAUUGCGGGAAAGGGGUCAACAGCCGUUCAGUACCAAGUCUCAGGGGAAACUUUGAGAUGGCCUUGCAAAGGGUAUGGUAAUAAGCUGACGGACAUGGUCCUAACCACGCAGCCAAGUCCUAAGUCAACAGAUCUUCUGUUGAUAUGGAUGCAGUUCACAGACUAAAUGUCGGUCGGGGAAGAUGUAUUCUUCUCAUAAGAUAUAGUCGGACCUCUCCUUAAUGGGAGCUAGCGGAUGAAGUGAUGCAACACUGGAGCCGCUGGGAACUAAUUUGUAUGCGAAAGUAUAUUGAUUAGUUUUGGAGUACUCGUGGUCG
In short, it runs like this: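 Library with all eight P1ex-region intron nucleotides randomised, intron inside the knt kanamycin-resistance gene on pET-22b(+), in E. coli BL21(DE3). Cells grew overnight at 37°C or 30°C on LB agar with or without 25 μg/mL kanamycin (plus 100 μg/mL carbenicillin, 50 μM IPTG, 0.2% rhamnose), in six replicate transformations. Pooled colonies were amplicon-sequenced on Illumina HiSeq 2500. DiMSum fitness is the error-weighted combination of wild-type-normalised replicate fold changes, kanamycin versus none.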

± gives the uncertainty stated by the source.

For the sequence GGUAAGCAAUAUUACGAGCU, the “self-splicing fitness (ln)” value reads like this: (30 °C) -3.03 ± 0.35; (37 °C) -1.36 ± 0.25.
For UCGAAGCAAUAUUACGGAUU the same measures were -3.96 ± 0.32 and -2.56 ± 0.25.
On to CGUCAGCAAUAUUACGAUUU, for which the “self-splicing fitness (ln)” value reads like this: (30 °C) -1.01 ± 0.06; (37 °C) -1.11 ± 0.061.
For AAAUAGCAAUAUUACGGCCG the same measures were -0.799 ± 0.23 and 0.0219 ± 0.35.
With AUCUAGCAAUAUUACGAAAC, the “self-splicing fitness (ln)” value (37 °C) is -1.96 ± 0.49.
The same measure, in the same setting: with GCCGAGCAAUAUUACGGCCG the figure was -1.7 ± 0.47.
For CCGAAGCAAUAUUACGAGGA, the “self-splicing fitness (ln)” value is, setting by setting: (30 °C) -4.32 ± 0.39; (37 °C) -2.54 ± 0.21.
For GUAGAGCAAUAUUACGAUGG the same measures were -2.34 ± 0.091 and -1.59 ± 0.11.
Turning to GCGUAGCAAUAUUACGGAAA, the “self-splicing fitness (ln)” value is -3.29 ± 0.37 (30 °C) and -0.0155 ± 0.18 (37 °C).
For AUAAAGCAAUAUUACGAGUG the same measures were -2.03 ± 0.1 and -1.16 ± 0.12.
For CGCUAGCAAUAUUACGAUAC the same measures were -3.07 ± 0.21 and -2.31 ± 0.16.
For CUUCAGCAAUAUUACGUAAG the same measures were -0.469 ± 0.084 and -0.514 ± 0.1.
For the sequence UUAUAGCAAUAUUACGCGUU, the “self-splicing fitness (ln)” value is -3.58 ± 0.16 (30 °C) and -2.16 ± 0.17 (37 °C).
For ACGGAGCAAUAUUACGUAGA, the “self-splicing fitness (ln)” value is -4.18 ± 0.31 (30 °C) and -2.41 ± 0.24 (37 °C).
As to CAUCAGCAAUAUUACGCAAC, the “self-splicing fitness (ln)” value (37 °C) is -1.59 ± 0.28.
Consider UAACAGCAAUAUUACGCGGU, for which the “self-splicing fitness (ln)” value was -3.25 ± 0.17 (30 °C) and -3.29 ± 0.15 (37 °C).
For UUGAAGCAAUAUUACGGCAC the same measures were -0.928 ± 0.13 and -0.814 ± 0.17.
For UGUAAGCAAUAUUACGACGG the same measures were -1.46 ± 0.11 and -0.11 ± 0.12.
Turning to UCUUAGCAAUAUUACGGCAA, the “self-splicing fitness (ln)” value (37 °C) is -1.57 ± 0.37.
With UUACAGCAAUAUUACGAAGA, the “self-splicing fitness (ln)” value runs as follows: (30 °C) -1.25 ± 0.15; (37 °C) -0.992 ± 0.15.
For CGCUAGCAAUAUUACGCGGU the same measures were -3.4 ± 0.26 and -2.39 ± 0.21.
For AUAGAGCAAUAUUACGGGGC the same measures were -3.43 ± 0.43 and -2.51 ± 0.41.
For ACUCAGCAAUAUUACGAAUA the same measures were -1.99 ± 0.14 and -0.941 ± 0.15.
As for ACAGAGCAAUAUUACGACAG, the “self-splicing fitness (ln)” value was -3.72 ± 0.31 (30 °C) and -1.95 ± 0.2 (37 °C).
For GCUCAGCAAUAUUACGUGUU the same measures were -0.538 ± 0.055 and 0.555 ± 0.064.
Consider AAGAAGCAAUAUUACGUCGA, for which the “self-splicing fitness (ln)” value was -0.754 ± 0.097 (30 °C) and 0.0801 ± 0.14 (37 °C).
For UUGGAGCAAUAUUACGAUGA the same measures were -0.635 ± 0.11 and -0.543 ± 0.11.
For GCUUAGCAAUAUUACGGGAG the same measures were -2.42 ± 0.18 and -1.29 ± 0.18.
Turning to UUCCAGCAAUAUUACGCACU, the “self-splicing fitness (ln)” value (30 °C) was -3.48 ± 0.31 and the “self-splicing fitness (ln)” value (37 °C) is -0.748 ± 0.16.
For CAACAGCAAUAUUACGGUAU the same measures were -3.52 ± 0.1 and -1.9 ± 0.09.
Take ACUCAGCAAUAUUACGCGGC: where the note is “30 °C”, the “self-splicing fitness (ln)” value is -3.2 ± 0.25.
Take GGGGAGCAAUAUUACGUCCA: the “self-splicing fitness (ln)” value was -0.767 ± 0.12 (30 °C) and -0.145 ± 0.22 (37 °C).
For AAUUAGCAAUAUUACGAGUA the same measures were -1.86 ± 0.24 and -1.16 ± 0.18.
For CCUAAGCAAUAUUACGGCAA the same measures were -3.72 ± 0.21 and -2.91 ± 0.23.
For ACUGAGCAAUAUUACGACUG the same measures were -3.2 ± 0.34 and -1.68 ± 0.23.
As for AACAAGCAAUAUUACGAGCC, the “self-splicing fitness (ln)” value was -3.25 ± 0.47 (30 °C) and -2.09 ± 0.36 (37 °C).
As to UCUAAGCAAUAUUACGGCUC, where the note is “37 °C”, the “self-splicing fitness (ln)” value was -1.67 ± 0.35.
On to GUGUAGCAAUAUUACGAGUC, for which the “self-splicing fitness (ln)” value (30 °C) was -1.74 ± 0.36 and the “self-splicing fitness (ln)” value (37 °C) is -1.03 ± 0.3.
As for AGCCAGCAAUAUUACGGUAU, the “self-splicing fitness (ln)” value was -2.57 ± 0.1 (30 °C) and -1.14 ± 0.094 (37 °C).
For AGACAGCAAUAUUACGAUGA the same measures were -2.02 ± 0.12 and -0.531 ± 0.094.
As for UAACAGCAAUAUUACGUUCC, the “self-splicing fitness (ln)” value (30 °C) is -2.23 ± 0.11 and the “self-splicing fitness (ln)” value (37 °C) is -2.28 ± 0.18.
For UCCAAGCAAUAUUACGUGUC the same measures were -3.42 ± 0.12 and -2.94 ± 0.12.
For GUGGAGCAAUAUUACGGGGA the same measures were -3.12 ± 0.44 and -2.65 ± 0.4.
For UCCUAGCAAUAUUACGCCCC the same measures were -2.75 ± 0.45 and -2.12 ± 0.42.
GCAUAGCAAUAUUACGAGAA: the “self-splicing fitness (ln)” value was -2.57 ± 0.46 (30 °C) and -2.67 ± 0.41 (37 °C).
With AGUGAGCAAUAUUACGUUAU, the “self-splicing fitness (ln)” value (30 °C) was -3.13 ± 0.17 and the “self-splicing fitness (ln)” value (37 °C) was -3.08 ± 0.27.
With UGGAAGCAAUAUUACGCUGU, the “self-splicing fitness (ln)” value is -2.58 ± 0.41 (30 °C) and -2.3 ± 0.49 (37 °C).
For the sequence UCCUAGCAAUAUUACGAUAC, the “self-splicing fitness (ln)” value (30 °C) was -3.42 ± 0.35 and the “self-splicing fitness (ln)” value (37 °C) was -2.41 ± 0.44.
For the sequence CUUUAGCAAUAUUACGGUCA, the “self-splicing fitness (ln)” value reads like this: (30 °C) -2.41 ± 0.25; (37 °C) -3.28 ± 0.35.
For GAAGAGCAAUAUUACGGCCG the same measures were -2.63 ± 0.42 and -0.854 ± 0.29.
Regarding ACGUAGCAAUAUUACGACGA, the “self-splicing fitness (ln)” value (30 °C) stood at 0.179 ± 0.11 and the “self-splicing fitness (ln)” value (37 °C) is -0.0557 ± 0.12.
For AAGCAGCAAUAUUACGAUAU the same measures were -0.287 ± 0.076 and -0.0114 ± 0.099.
For UAAUAGCAAUAUUACGUAGU the same measures were -3.82 ± 0.19 and -2.44 ± 0.23.
For CGCAAGCAAUAUUACGGACG the same measures were -1.45 ± 0.1 and -0.532 ± 0.11.
In the case of ACCUAGCAAUAUUACGGGAC, the “self-splicing fitness (ln)” value is -1.87 ± 0.17 (30 °C) and -1.36 ± 0.18 (37 °C).
In the case of GAAAAGCAAUAUUACGACUA, the “self-splicing fitness (ln)” value runs as follows: (30 °C) 0.0422 ± 0.14; (37 °C) 0.403 ± 0.15.
For CCAAAGCAAUAUUACGUCUG the same measures were -0.9 ± 0.054 and -0.302 ± 0.066.
For AAUUAGCAAUAUUACGCCUU the same measures were -0.243 ± 0.11 and -0.0919 ± 0.12.
For CAAGAGCAAUAUUACGGCCU the same measures were -3.5 ± 0.25 and -1.27 ± 0.33.
With CUGCAGCAAUAUUACGGGAU, the “self-splicing fitness (ln)” value is -2.46 ± 0.096 (30 °C) and -2.1 ± 0.15 (37 °C).
For the sequence GGACAGCAAUAUUACGAUAC, the “self-splicing fitness (ln)” value is -0.672 ± 0.084 (30 °C) and -0.478 ± 0.098 (37 °C).
Regarding GUGUAGCAAUAUUACGUCGU, the “self-splicing fitness (ln)” value reads like this: (30 °C) -1.67 ± 0.15; (37 °C) -1.1 ± 0.16.
In the case of GGUGAGCAAUAUUACGUGGC, the “self-splicing fitness (ln)” value (37 °C) was -2.59 ± 0.33.
Take CCCGAGCAAUAUUACGUGGA: the “self-splicing fitness (ln)” value is, setting by setting: (30 °C) -3.08 ± 0.21; (37 °C) -2.81 ± 0.22.
In the case of UAUAAGCAAUAUUACGCCGU, the “self-splicing fitness (ln)” value (30 °C) is -1.41 ± 0.49.
Regarding UCCAAGCAAUAUUACGGUGU, the “self-splicing fitness (ln)” value is, setting by setting: (30 °C) -0.788 ± 0.047; (37 °C) 0.18 ± 0.066.
For GCUCAGCAAUAUUACGAAGG the same measures were -0.909 ± 0.073 and -0.29 ± 0.1.
Take GUCUAGCAAUAUUACGCUCA: the “self-splicing fitness (ln)” value reads like this: (30 °C) 0.346 ± 0.16; (37 °C) 0.103 ± 0.19.
Take CCCAAGCAAUAUUACGCAAG: the “self-splicing fitness (ln)” value is -3.34 ± 0.19 (30 °C) and -2.86 ± 0.22 (37 °C).
For AACAAGCAAUAUUACGAUCG the same measures were -1.4 ± 0.076 and -0.996 ± 0.097.
UCAUAGCAAUAUUACGAUAG: the “self-splicing fitness (ln)” value (30 °C) was -3.22 ± 0.19 and the “self-splicing fitness (ln)” value (37 °C) was -1.79 ± 0.13.
For UACAAGCAAUAUUACGAGUC, the “self-splicing fitness (ln)” value reads like this: (30 °C) -3.06 ± 0.11; (37 °C) -1.93 ± 0.15.
As for UGACAGCAAUAUUACGGUUA, the “self-splicing fitness (ln)” value reads like this: (30 °C) -0.746 ± 0.073; (37 °C) -0.364 ± 0.065.
For CGCGAGCAAUAUUACGAGUC the same measures were -2.7 ± 0.38 and -1.57 ± 0.29.
Take UUUGAGCAAUAUUACGUGCA: the “self-splicing fitness (ln)” value (30 °C) is -3.05 ± 0.21 and the “self-splicing fitness (ln)” value (37 °C) was -1.96 ± 0.18.
For CAAAAGCAAUAUUACGCCAA the same measures were -3.4 ± 0.36 and -2.1 ± 0.24.
CUAUAGCAAUAUUACGUUGU: the “self-splicing fitness (ln)” value was -3.77 ± 0.19 (30 °C) and -3.85 ± 0.33 (37 °C).

For the origin of these results see the supplement of paper PMC7877785.
